Laboratory results taken from the DeepSol protein solubility set.

Assay: soluble on expression in E. coli; label from the status in PepcDB or PDB records

Sequence	soluble on expression in E. coli
MNSVSEPVPSHGKKPPKNVLAEHGGWKILRILLVSTYKDFRNERRAVLDLVENKLQPIASEKHVILQVEDFSWGSKAHLEEASSLYLIERLCREAVSSSSYFYLHFLGECSGYILDPNFTDQSFLRQHSISTGQSFSEVFLQLSGLQNEKSLFLYRNPSFHQELPFNVTHFIDGPVNRERAKYLTTMVRGEAPASKFIEYSVRTSGINNIHFKHIMFDELSGITKPIEAMVGKYLEKLPDGEAGIPSVEEFMNEYYSQLHVNQTIMSKIEYNLKSHKSILLVGDYCTGKTSILHRIQWKYRDAVIVQAKEKMSAIELRRAIEAKTNVILHDVEQKVVRYLLVDDIHLNFCENFKVKITLSQILQNFNCFAQIFSLLKQIFINFFQASKEAQQYLIGNEELVIVATSRKKKLEVDMNRIIIPHLEPEDILDELSFWLNGGEKEKSGVPSVKASNILKMSQQKRRRSIGTVEDGHQPDENIGWNSLKCRVIGTLGRIGSSDEKCAQLAQLSTLSVVEADMCLMESDGKGHLLIATLCYLTIVESGLNEMELRSLLILEYNLLPIAIRRNYKNLPFDYCPDEFGTTSCTQTLPLRWYFVLHRLGHLFMKIDGDSNHFVLPSACRRVVFKKYLKHPHNLEHFKKNFKEFLTNFSGKEWNRNRQIKMYL	not soluble
MMENYITSFQLRFCPAAYLHLEQLPSLWRSILPYLPQWRDSAHLNAALLDEFSLDTDYEEPHGLGALPLQPQSQLELLLCRLGLVLHGEAIRRCVLASPLQQLLTLVNQETLRQIIVQHELLIGPWPTHWQRPLPTEIESRTMIQSGLAFWLAAMEPQPQAWCKRLSLRLPLATPSEPWLVAESQRPLAQTLCHKLVKQVTPTCSHLFK	not soluble
MSLAANTQDVEITIPQGASLYQVSERLYDEGVIRSRLWFRYQGKISQADRNIRPGAYTFSPDTDLEEIFTLLQKGVPEQPVIMTIPEGFTLYEIAQRVESLGFGLAEEFIKATQDYFKSRDYSFDTSELYFEMEGYLYPDTYHLKKNQDMKAIVHSLVSPIDAFFSEEYIKRAEELGLSLHEVLTIASIIEREAYHDEERATVSGVIFNRLGIRMSLQIDATVIYGLGEGKEHRNRVLYADLETPNPFNTYMNTGIPPGPIAAPSKASIHATLYPEDHSYLYYVLGEGGHVFSETYQEHLKHVDAYRRRINEGHHHHHH	not soluble
HTLNKALADTRANLTESVGNAGEVLHDITGVVSTPMPSENDSENLFDSVSNYPTGNKSDTHNAFGSSGKTAPMPYQSAYAPQQRSLSLRESRAAMNTYAELYKKTDDIDLELSRFEQARFGNMPSETPAPQTDTPLSDGIPSQSELPPLGFAIAQLLGIYILAQAEDSLLLIDMHAAAERVNYEKMKRQRQENGNLQSQRLLIPVTFAASHEECAALADYAETLAGFGLELSDMGGNTLAVRAVPAMLGKADVVSLAKDVLNELAQVGSSQTIEEHENRILATMSCHGSIRAGRRLTLPEMNALLRDMENTPRSNQCNHGRPTWVKLTLKELDALFLRGQ	not soluble
MSNLNPCMTCGACCAFFRVSFYWAEADDAGGTIPARLTEQISPFHRCMSGTNQKNPRCIALAGTPGKNACCTIYKNRSSTCREFAMSGENGVVNEACNRARAKYGLTPL	not soluble
